{"source": "patent US20200157212A1", "about": "(Pfizer, published 2020)", "binders": {"B1": {"name": "SLIT2-N (ligand)", "chain": "QCSCSGSTVDCHGLALRSVPRNIPRNTERLDLNGNNITRITKTDFAGLRHLRVLQLMENKISTIERGAFQDLKELERLRLNRNHLQLFPELLFLGTAKLYRLDLSENQIQAIPRKAFRGAVDIKNLQLDYNQISCIEDGAFRALRDLEVLTLNNNNITRLSVASFNHMPKLRTFRLHSNNLYCDCHLAWLSDWLRQRPRVGLYTQCMGPSHLRGHNVAEVQKREFVCSGHQSFMAPSCSVLHCPAACTCSNNIVDCRGKGLTEIPTNLPETITEIRLEQNTIKVIPPGAFSPYKKLRRIDLSNNQISELAPDAFQGLRSLNSLVLYGNKITELPKSLFEGLFSLQLLLLNANKINCLRVDAFQDLHNLNLLSLYDNKLQTIAKGTFSPLRAIQTMHLAQNPFICDCHLKWLADYLHTNPIETSGARCTSPRRLANKRIGQIKSKKFRCSAKEQYFIPGTEDYRSKLSGDCFADLACPEKCRCEGTTVDCSNQKLNKIPEHIPQYTAELRLNNNEFTVLEATGIFKKLPQLRKINFSNNKITDIEEGAFEGASGVNEILLTSNRLENVQHKMFKGLESLKTLMLRSNRITCVGNDSFIGLSSVRLLSLYDNQITTVAPGAFDTLHSLSTLNLLANPFNCNCYLAWLGEWLRKKRIVTGNPRCQKPYFLKEIPIQDVAIQDFTCDDGNDDNSCSPLSRCPTECTCLDTVVRCSNKGLKVLPKGIPRDVTELYLDGNQFTLVPKELSNYKHLTLIDLSNNRISTLSNQSFSNMTQLLTLILSYNRLRCIPPRTFDGLKSLRLLSLHGNDISVVPEGAFNDLSALSHLAIGANPLYCDCNMQWLSDWVKSEYKEPGIARCAGPGEMADKLLLTTPSKKFTCQGPVDVNILAKCNPCLSNPCKNDGTCNSDPVDFYRCTCPYGFKGQDCDVPIHACISNPCKHGGTCHLKEGEEDGFWCICADGFEGENCEVNVDDCEDNDCENNSTCVDGINNYTCLCPPEYTGELCEEKLDFCAQDLNPCQHDSKCILTPKGFKCDCTPGYVGEHCDIDFDDCQDNKCKNGAHCTDAVNGYTCICPEGYSGLFCEFSPPMVLPRTSPCDNFDCQ", "modifications": "d2 label in the HTRF assay", "notes": "also called d2-labeled SLIT2-N"}}, "molecular_target": "T1, Terbium (Tb) labeled-SNAP tagged ROBO2 expressed on HEK293 cells (Homo sapiens (Human), UniProt Q9HCK4 22-1378, terbium label on the SNAP tag)", "T1 construct": "also called Tb-labeled ROBO2 cells; ROBO2 expressing cells; not shown: SNAP tag", "T1 sequence": "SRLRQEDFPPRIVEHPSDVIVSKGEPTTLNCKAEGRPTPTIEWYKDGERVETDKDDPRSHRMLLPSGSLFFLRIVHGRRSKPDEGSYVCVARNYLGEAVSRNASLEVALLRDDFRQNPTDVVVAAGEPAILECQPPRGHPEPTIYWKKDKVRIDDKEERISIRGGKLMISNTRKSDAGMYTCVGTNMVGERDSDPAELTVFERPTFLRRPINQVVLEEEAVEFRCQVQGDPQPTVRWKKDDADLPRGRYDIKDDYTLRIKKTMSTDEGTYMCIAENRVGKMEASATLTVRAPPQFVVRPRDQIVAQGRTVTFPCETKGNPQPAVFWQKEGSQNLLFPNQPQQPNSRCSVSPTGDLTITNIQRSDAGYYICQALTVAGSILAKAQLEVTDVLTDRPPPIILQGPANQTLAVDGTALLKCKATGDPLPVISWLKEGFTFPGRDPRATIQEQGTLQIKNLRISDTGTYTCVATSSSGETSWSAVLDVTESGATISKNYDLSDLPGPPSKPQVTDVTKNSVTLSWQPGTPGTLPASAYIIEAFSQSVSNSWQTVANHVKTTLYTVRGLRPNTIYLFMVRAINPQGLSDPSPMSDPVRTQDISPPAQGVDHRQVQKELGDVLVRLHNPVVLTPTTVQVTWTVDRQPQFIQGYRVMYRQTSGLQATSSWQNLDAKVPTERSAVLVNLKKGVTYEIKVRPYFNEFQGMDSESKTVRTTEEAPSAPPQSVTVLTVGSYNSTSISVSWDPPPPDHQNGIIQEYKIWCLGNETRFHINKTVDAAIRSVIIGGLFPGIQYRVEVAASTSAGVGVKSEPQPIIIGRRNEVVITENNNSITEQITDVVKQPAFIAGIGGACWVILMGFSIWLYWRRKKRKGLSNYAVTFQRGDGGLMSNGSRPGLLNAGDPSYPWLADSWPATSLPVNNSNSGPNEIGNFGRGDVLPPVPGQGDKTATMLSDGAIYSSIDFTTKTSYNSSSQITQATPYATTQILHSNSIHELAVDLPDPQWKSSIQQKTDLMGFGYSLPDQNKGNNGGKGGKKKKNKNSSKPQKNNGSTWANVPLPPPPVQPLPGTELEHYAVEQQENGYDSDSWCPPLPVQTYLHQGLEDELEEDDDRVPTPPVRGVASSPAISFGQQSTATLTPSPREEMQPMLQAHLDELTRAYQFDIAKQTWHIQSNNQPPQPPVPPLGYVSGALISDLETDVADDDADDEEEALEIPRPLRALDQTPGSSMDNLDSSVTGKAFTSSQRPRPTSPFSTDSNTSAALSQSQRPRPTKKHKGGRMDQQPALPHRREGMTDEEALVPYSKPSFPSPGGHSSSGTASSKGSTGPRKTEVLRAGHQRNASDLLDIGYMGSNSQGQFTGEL", "assay": "HTRF, 5 nM d2-SLIT2-N on Tb-SNAP-ROBO2 HEK293 cells, no antibody (maximal signal)", "experimental": "In this assay, terbium (Tb) labeled-SNAP tagged ROBO2 expressing HEK293 cells were incubated with 5 nM d2-labeled SLIT-2N in the presence of 1 nM anti-ROBO2 antibodies for 1 hour. After incubation, fluorescence at 665 nm and 620 nm was measured on an Envision multilabel plate reader. […] Maximal signal was defined as the HTRF ratio of Tb-labeled ROBO2 cells with d2-labeled SLIT2-N in the absence of antibody, the minimum signal was defined as the HTRF ratio of Tb-labeled ROBO2 expressing HEK293 cells only. One nanomolar (nM) parental antibody, 93H2, was unable to block the HTRF assay, therefore this concentration was selected to identify clones with a higher affinity than 93H2 (Table 2, HTRF Ratio column). […] Antibodies derived from chain (Abcs series) or CDR shuffling (CTIR-2 series) were evaluated in 11-point, 5-fold dilution series with a top concentration of 1500 nM (Table 2 HTRF IC₅₀).\nHTRF assays were run with 5 nM d2-labeled SLIT2-N and antibodies were added at 1 nM. […] Antibodies derived from chain (Abcs series) or CDR shuffling (CTIR-2 series) were evaluated in 11-point, 5-fold dilution series with a top concentration of 1500 nM, N.T. = not tested; ^cFold selectivity was calculated as Geometric Mean Fluorescent Intensity (Geo MFI) of ROBO2/Geo MFI of ROBO1 binding."}
{"binder": "B1", "values": [{"measurement": "HTRF Ratio", "value": 11900}]}
